Data from patent US20250319163A1, “TREATMENT OF TYPE 2 DIABETES MELLITUS” (SANOFI, priority 2019, published 2025).

Columns and labels:
[1] = test system: Japanese patients with type 2 diabetes mellitus inadequately controlled on oral antidiabetic drugs; assay: EFC14114: mean change in HbA1c from baseline to Week 26; assay type: in vivo, human; settings: on-treatment period, mITT population
[2] = test system: Japanese patients with type 2 diabetes mellitus inadequately controlled on oral antidiabetic drugs; assay: EFC14114: treatment-emergent adverse events; settings: Safety population; for Patients with any TEAE, %: overview of adverse event profile
[3] = test system: Japanese patients with type 2 diabetes mellitus inadequately controlled on oral antidiabetic drugs; assay: EFC14114: documented symptomatic hypoglycemia; assay type: in vivo, human; settings: plasma glucose ≤70 mg/dL [[…]], on-treatment period; for Documented symptomatic hypoglycemia: patients with events, %: Safety population
[4] = test system: Japanese patients with type 2 diabetes mellitus inadequately controlled on oral antidiabetic drugs; assay: EFC14114: mean change in 2-hour postprandial plasma glucose during a standardized meal test; assay type: in vivo, human; settings: mITT population, ANCOVA, LOCF
[5] = test system: Japanese patients with type 2 diabetes mellitus inadequately controlled on oral antidiabetic drugs; assay: EFC14114: mean change in fasting plasma glucose from baseline to Week 26; assay type: in vivo, human; settings: mITT population, MMRM
[6] = SGLT2 inhibitor use at screening: No
[7] = SGLT2 inhibitor use at screening: Yes

Substance: Gly(A21)-Arg(B31)-Arg(B32) human insulin [Insulin Glargine]
- Mean change in HbA1c from baseline to Week 26, LSMean (SE) [1, 6]: −0.83 (0.047) %
- Mean change in HbA1c from baseline to Week 26, LSMean (SE) [1, 7]: −0.49 (0.091) %
- Patients with TEAE: Any class, % [2, 6]: (63.4%)
- Patients with TEAE: Back pain (PT), % [2, 6]: (2.9%)
- Patients with TEAE: Constipation (PT), % [2, 6]: (1.5%)
- Patients with TEAE: Dental caries (PT), % [2, 6]: (2.4%)
- Patients with TEAE: Diarrhoea (PT), % [2, 6]: (2.9%)
- Patients with TEAE: Dizziness (PT), % [2, 6]: (3.4%)
- Patients with TEAE: Dyspepsia (PT), % [2, 6]: (0.5%)
- Patients with TEAE: Fatigue (PT), % [2, 6]: (2.0%)
- Patients with TEAE: Gastrointestinal disorders (SOC), % [2, 6]: (15.6%)
- Patients with TEAE: General disorders and administration site conditions (SOC), % [2, 6]: (7.3%)
- Patients with TEAE: Headache (PT), % [2, 6]: (2.0%)
- Patients with TEAE: Hyperhidrosis (PT), % [2, 6]: (2.9%)
- Patients with TEAE: Infections and infestations (SOC), % [2, 6]: (35.6%)
- Patients with TEAE: Influenza (PT), % [2, 6]: (1.5%)
- Patients with TEAE: Metabolism and nutrition disorders (SOC), % [2, 6]: (2.9%)
- Patients with TEAE: Musculoskeletal and connective tissue disorders (SOC), % [2, 6]: (12.2%)
- Patients with TEAE: Nasopharyngitis (PT), % [2, 6]: (25.4%)
- Patients with TEAE: Nausea (PT), % [2, 6]: (1.5%)
- Patients with TEAE: Nervous system disorders (SOC), % [2, 6]: (9.3%)
- Patients with TEAE: Pharyngitis (PT), % [2, 6]: (1.0%)
- Patients with TEAE: Skin and subcutaneous tissue disorders (SOC), % [2, 6]: (9.8%)
- Patients with any TEAE leading to permanent treatment discontinuation, % [2, 6]: 0.5%
- Patients with any serious TEAE, % [2, 6]: 3.4%
- Patients with TEAE: Any class, % [2, 7]: (64.3%)
- Patients with TEAE: Back pain (PT), % [2, 7]: (5.4%)
- Patients with TEAE: Dental caries (PT), % [2, 7]: (1.8%)
- Patients with TEAE: Gastrointestinal disorders (SOC), % [2, 7]: (12.5%)
- Patients with TEAE: General disorders and administration site conditions (SOC), % [2, 7]: (5.4%)
- Patients with TEAE: Headache (PT), % [2, 7]: (5.4%)
- Patients with TEAE: Hyperhidrosis (PT), % [2, 7]: (1.8%)
- Patients with TEAE: Infections and infestations (SOC), % [2, 7]: (33.9%)
- Patients with TEAE: Influenza (PT), % [2, 7]: (1.8%)
- Patients with TEAE: Metabolism and nutrition disorders (SOC), % [2, 7]: (1.8%)
- Patients with TEAE: Musculoskeletal and connective tissue disorders (SOC), % [2, 7]: (12.5%)
- Patients with TEAE: Nasopharyngitis (PT), % [2, 7]: (17.9%)
- Patients with TEAE: Nausea (PT), % [2, 7]: (3.6%)
- Patients with TEAE: Nervous system disorders (SOC), % [2, 7]: (10.7%)
- Patients with TEAE: Pharyngitis (PT), % [2, 7]: (5.4%)
- Patients with TEAE: Skin and subcutaneous tissue disorders (SOC), % [2, 7]: (8.9%)
- Patients with any TEAE leading to permanent treatment discontinuation, % [2, 7]: 1.8%
- Patients with any serious TEAE, % [2, 7]: 1.8%
- Patients with any TEAE, % [2, 6]: 63.4%
- Patients with any TEAE, % [2, 7]: 64.3%
- Documented symptomatic hypoglycemia: Number of events [3, 6]: 62
- Documented symptomatic hypoglycemia: Number of events per patient year [3, 6]: 0.61
- Documented symptomatic hypoglycemia: Number of patients with events per patient year [3, 6]: 0.28
- Documented symptomatic hypoglycemia: patients with events, % [3, 6]: 14.1%
- Documented symptomatic hypoglycemia: Number of events [3, 7]: 8
- Documented symptomatic hypoglycemia: Number of events per patient year [3, 7]: 0.29
- Documented symptomatic hypoglycemia: Number of patients with events per patient year [3, 7]: 0.11
- Documented symptomatic hypoglycemia: patients with events, % [3, 7]: 5.4%
- Mean change in 2-hour postprandial plasma glucose during a standardized meal test from baseline to Week 26, LSMean (SE) [4, 6]: −1.29 (0.185) mmol/L
- Mean change in 2-hour postprandial plasma glucose during a standardized meal test from baseline to Week 26, LSMean (SE) [4, 7]: −1.38 (0.363) mmol/L
- Mean change in fasting plasma glucose from baseline to Week 26, LSMean (SE) [5, 6]: −1.46 (0.104) mmol/L
- Mean change in fasting plasma glucose from baseline to Week 26, LSMean (SE) [5, 7]: −1.01 (0.205) mmol/L
